T1: Rhomboid-1 (Drosophila melanogaster, UniProt P20350)
T1 construct: When co-expressed with Star and full-length Rhomboid-1 in the COS cell Spitz cleavage assay; expressed in transfected cells; host or cells: COS cells, pcDNA3.1 constructs, transient transfection
T1 sequence (P20350 1-355): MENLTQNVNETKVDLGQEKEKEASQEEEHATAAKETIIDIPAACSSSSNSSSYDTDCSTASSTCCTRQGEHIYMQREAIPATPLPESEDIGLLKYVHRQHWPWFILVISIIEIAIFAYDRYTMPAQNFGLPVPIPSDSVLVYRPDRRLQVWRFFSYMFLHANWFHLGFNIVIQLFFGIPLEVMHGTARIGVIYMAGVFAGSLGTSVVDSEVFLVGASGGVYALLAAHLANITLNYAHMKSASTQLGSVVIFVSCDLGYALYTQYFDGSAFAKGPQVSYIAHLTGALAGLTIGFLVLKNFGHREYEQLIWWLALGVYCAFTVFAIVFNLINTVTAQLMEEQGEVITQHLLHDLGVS


Key:
zebrafish RHBDL2 = assay: Zebrafish RHBDL2 knockout by antisense morpholino injection into embryos; assay type: in vivo, Zebrafish (Danio rerio); conditions: injected into 1-4 cell embryos at 2-4 μM, assessed after 24 and 48 hours
Experimental: Knockout of the zebrafish RHBDL2 was performed by standard procedures (McClintock J M, Kheirbek M A, Prince V E. 2002. Development. 129, 2339-2354.). A morpholino antisense oligonucleotide ([…]) SEQ.ID. 7 complementary to the region of the cDNA surrounding the start of translation was injected into 1-4 cell embryos at 2-4 μM. After 24 and 48 hours the phenotype was assessed and compared with wild-type embryos of equivalent stages. In situ hybridisation to RHBDL2 was performed by standard techniques.
To investigate the role of vertebrate Rhomboids, the zebrafish homologue of human RHBDL2 (sequenced from cDNA clone 2652120, GenBank accession number AW422344) was knocked out using the standard technology of antisense morpholino oligonucleotides (reviewed in Heasman J. Dev Biol. Mar. 15, 2002;243(2):209-14), which allows the rapid removal of a gene function. Zebrafish embryos are a common model system as their embryonic development is easily observed.

release of TGFα = assay: Release/secretion of TGFα from transfected COS cells; assay type: cell-based, human; conditions: expression of truncated Rhomboid-1, compared with control
Experimental: COS cells were grown in DMEM medium (supplemented with 10% foetal calf serum), and transfected with FuGENE 6 Transfection Reagent (Roche). Cells were transfected in 35 mm culture wells with 25-250 ng of each construct and empty plasmid to bring the total DNA to 1 μg per well. 24-30 hours post-transfection the medium was replaced with serum-free medium; this was harvested 24 hours later and cells were lysed in SDS-sample buffer. GFP was detected in conditioned medium and cell lysates by western blot with a rabbit polyclonal antibody. For some experiments the serum-free medium was supplemented with the metalloprotease inhibitor batimastat (British Biotech) or ilomostat (Calbiochem).
Spitz, Star and Rhomboid-1 are the only Drosophila proteins present in the transfected mammalian cells. A possible hypothesis is that these proteins are able to recruit a mammalian protease to a processing complex. If this were the case, the principle candidate for the putative mammalian protease would be a member of the ADAM family of metalloproteases. These proteases have broad specificity and are responsible for the release of a large number of mammalian growth factors, including the Spitz homolog, TGFα. The possible involvement of these proteases was tested with the potent metalloprotease inhibitor batimastat (British Biotechnology) at 1 μM and 10 μM. […]

Rhomboid-1 = target: T1, Rhomboid-1; assay: Rhomboid-1 and Star dependent cleavage of GFP-Spitz in transfected COS cells (western blot of medium); assay type: cell-based; conditions: co-expressed with Star and full-length Rhomboid-1 in COS cells
Experimental: COS cells were grown in DMEM medium (supplemented with 10% foetal calf serum), and transfected with FuGENE 6 Transfection Reagent (Roche). Cells were transfected in 35 mm culture wells with 25-250 ng of each construct and empty plasmid to bring the total DNA to 1 μg per well. 24-30 hours post-transfection the medium was replaced with serum-free medium; this was harvested 24 hours later and cells were lysed in SDS-sample buffer. GFP was detected in conditioned medium and cell lysates by western blot with a rabbit polyclonal antibody. For some experiments the serum-free medium was supplemented with the metalloprotease inhibitor batimastat (British Biotech) or ilomostat (Calbiochem). Cells were transfected as standard with 1 ng of Rhomboid-1 DNA (in 1 μg total DNA) and were then incubated in serum-free medium for 24 hours. The medium was then replaced with 0.5 ml serum free medium containing protease inhibitor at the indicated concentration and incubated for 1 hour. After 1 hour, the medium was collected, cleared by centrifugation, dialysed overnight against several changes of water and lyophilised. The resulting pellets were re-suspended in SDS sample buffer, boiled and analysed by Western blot. Transfections with a secreted form of Spitz were used in parallel to control for non-specific toxicity of the protease inhibitors or general inhibition of the secretory pathway. The proteolytic cleavage assay was recapitulated in a mammalian tissue culture system. Spitz was tagged with GFP near its N-terminus and transiently expressed in COS cells, in the presence or absence of Star and/or Rhomboid-1. The accumulation of the soluble extracellular fragment of GFP-Spitz in the cell medium was then measured by western blot.

Row | ability of wild-type Rhomboid-1 to promote GFP-Spitz cleavage (Rhomboid-1) | Molecule | embryo phenotype after knockout (zebrafish RHBDL2) | TGFα synthesis or secretion (release of TGFα)
1 |  | anti-sense morpholino oligo TCTTGCTCTTCGGTGTCATTATCGC: morpholino antisense oligonucleotide complementary to the region of zebrafish RHBDL2 cDNA surrounding the start of translation (all phosphorodiamidate morpholino (PMO)) | specific defects in the brain, the otic placode and the tail | 
2 | inhibited | Rho-1-NTM1: residues 1 to 149 of Rhomboid-1: N-terminal cytoplasmic domain plus first TMD and part of first extracellular loop; dominant negative (protein, UniProt P20350 1-149, looked up, fragment) MENLTQNVNETKVDLGQEKEKEASQEEEHATAAKETIIDIPAACSSSSNSSSYDTDCSTASSTCCTRQGEHIYMQREAIPATPLPESEDIGLLKYVHRQHWPWFILVISIIEIAIFAYDRYTMPAQNFGLPVPIPSDSVLVYRPDRRLQ |  | did not interfere

— US7718391B2, “Assays for identifying modulators of rhomboid polypeptides” (Medical Research Council, priority 2001, dated 2010)
